What was measured:
Assay in all cases: latex bead solid phase immunoassay read by flow cytometry
[1] = molecular target: mouse IgA (native, on latex beads) (mouse)
[2] = molecular target: mouse IgG1 (native, on latex beads) (mouse)
[3] = molecular target: mouse IgG2a (native, on latex beads) (mouse)
[4] = molecular target: mouse IgG2b (native, on latex beads) (mouse)
[5] = molecular target: mouse IgG3 (native, on latex beads) (mouse)
[6] = molecular target: mouse IgM (native, on latex beads) (mouse)
mouse IgM (native, on latex beads) (mouse), sequence (P01872 whole entry, chain 1 of 3, other chains not shown): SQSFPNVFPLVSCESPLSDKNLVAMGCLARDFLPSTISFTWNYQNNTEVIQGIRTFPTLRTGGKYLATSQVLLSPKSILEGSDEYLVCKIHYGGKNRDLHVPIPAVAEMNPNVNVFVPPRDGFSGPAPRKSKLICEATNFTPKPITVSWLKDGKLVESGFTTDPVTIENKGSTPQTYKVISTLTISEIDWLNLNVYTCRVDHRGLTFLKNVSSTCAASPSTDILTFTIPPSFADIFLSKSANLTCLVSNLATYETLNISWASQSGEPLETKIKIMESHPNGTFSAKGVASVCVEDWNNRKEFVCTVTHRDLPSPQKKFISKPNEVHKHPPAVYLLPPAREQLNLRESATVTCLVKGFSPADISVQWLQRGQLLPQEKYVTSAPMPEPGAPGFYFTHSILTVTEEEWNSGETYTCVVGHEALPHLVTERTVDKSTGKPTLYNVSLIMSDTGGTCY
mouse IgM (native, on latex beads) (mouse), sequence (P01592 22-159, chain 3 of 3, other chains not shown, further chain): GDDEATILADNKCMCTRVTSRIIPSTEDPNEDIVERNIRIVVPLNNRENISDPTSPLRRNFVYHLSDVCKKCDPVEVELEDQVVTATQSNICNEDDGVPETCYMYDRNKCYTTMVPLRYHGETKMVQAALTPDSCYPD

Measured: fold lower mean fluorescence intensity than beads with catfish IgM

mouse IgG2a (native, on latex beads) (mouse), sequence (P01863 whole entry, chain 1 of 2, other chains not shown): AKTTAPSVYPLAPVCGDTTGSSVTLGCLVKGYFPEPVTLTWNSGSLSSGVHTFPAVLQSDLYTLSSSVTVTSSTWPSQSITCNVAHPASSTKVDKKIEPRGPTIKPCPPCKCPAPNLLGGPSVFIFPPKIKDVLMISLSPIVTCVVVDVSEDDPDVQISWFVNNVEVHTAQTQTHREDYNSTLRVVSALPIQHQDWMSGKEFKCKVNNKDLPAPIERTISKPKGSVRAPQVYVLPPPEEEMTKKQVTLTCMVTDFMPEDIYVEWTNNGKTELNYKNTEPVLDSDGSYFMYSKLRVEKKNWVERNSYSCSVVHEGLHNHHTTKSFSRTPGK

recombinant IpFcRI (D1-D2-D3), channel catfish soluble FcμR (receptor)
5 fold: all assays above

Source: PMC2830281
